# T1: recombinant human activated Factor VII (FVIIa) (human, UniProt P08709 61-212; P08709 213-466, Gla domain: ten glutamate residues may be gamma-carboxylated)
# T1 construct: two-chain form after cleavage between Arg152 and Ile153; light chain (Gla, EGF domains) and heavy chain (protease domain) tethered by a disulfide bond; also called rFVIIa; human FVIIa
# T1 sequence 1: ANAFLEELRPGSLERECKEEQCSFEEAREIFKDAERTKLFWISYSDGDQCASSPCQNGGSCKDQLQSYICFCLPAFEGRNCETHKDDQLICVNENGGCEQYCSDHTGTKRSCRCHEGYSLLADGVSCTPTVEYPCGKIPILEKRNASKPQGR
# T1 sequence 2: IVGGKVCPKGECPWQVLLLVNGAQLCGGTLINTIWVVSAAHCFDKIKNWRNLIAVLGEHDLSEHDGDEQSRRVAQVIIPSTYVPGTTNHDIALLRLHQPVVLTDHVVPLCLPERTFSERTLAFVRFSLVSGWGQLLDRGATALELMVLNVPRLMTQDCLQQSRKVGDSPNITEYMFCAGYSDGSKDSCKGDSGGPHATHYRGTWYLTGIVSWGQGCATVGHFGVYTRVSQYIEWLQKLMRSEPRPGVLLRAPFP
# T2: recombinant human activated Factor VII (FVIIa) (human, UniProt P08709 61-212; P08709 213-466, ten glutamate residues of the Gla domain may be gamma-carboxylated)
# T2 sequence 1: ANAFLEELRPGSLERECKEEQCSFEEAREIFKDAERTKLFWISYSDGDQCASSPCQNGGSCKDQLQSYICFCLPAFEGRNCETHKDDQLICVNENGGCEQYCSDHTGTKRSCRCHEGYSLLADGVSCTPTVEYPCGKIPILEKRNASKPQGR
# T2 sequence 2: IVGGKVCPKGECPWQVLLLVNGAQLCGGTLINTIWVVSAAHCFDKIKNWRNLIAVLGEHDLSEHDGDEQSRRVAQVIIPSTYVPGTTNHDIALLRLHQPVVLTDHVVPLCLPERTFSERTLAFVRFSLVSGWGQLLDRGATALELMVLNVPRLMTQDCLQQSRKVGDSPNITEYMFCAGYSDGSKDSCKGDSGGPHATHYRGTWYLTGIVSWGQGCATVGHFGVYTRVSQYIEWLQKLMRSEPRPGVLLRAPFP
# Target: T1, recombinant human activated Factor VII …
# Experiment: Bio-Layer Interferometry (Fortebio), antibody on anti-human tips, FVIIa 25-200 nM
# Protocol: All steps were performed in running buffer (20 mM HEPES buffer (pH 7.4), 150 mM NaCl, 5 mM CaCl2, 0.03% Tween 20, 1 mg/ml IgG-free BSA) at […] Antibodies were captured on anti-human tips (AHC, Fortebio) for 3 min at a concentration of 10 ug/ml. This was followed by a 3 min incubation to establish a baseline. Following this, association was monitored for 3 min using four different concentrations of VIIa (25 nm, 50 nM, 100 nM, and 200 nM), followed by a 3 mi dissociation. Sensorgrams were analysed using Fortebio data analysis software.
row,Kd,Binder
1,42000 nM,"mAb0110 (antibody, human IgG4 S228P, kappa, V domains shown, humanized 11F2 variant, first round) VH: DVQLQESGPGLVKPSQTLSLTCTVSGYSISSDSAWSWIRQPPGKGLEWIGYIQYSGSTNYNPSLKSRVTISRDTSKNQFSLKLSSVTAADTAVYYCARSVNYYGNSFWVDPWGQGTLVTVSS VL: DIVMTQSPATLSVTAGDRVSLSCRASQGISDYLHWYQQKSHESPRLLIKYTSQPVSGIPSRFSGSGSGSEFTLSINSVEPEDVGVYYCQNGHSFPLTFGAGTKLELKR"
2,11 nM,"mAb0109 (antibody, human IgG4 S228P, kappa, V domains shown, humanized 11F2 variant, first round) VH: DVQLQESGPGLVEPSQSLSLTCTVTGYSITSDSAWSWIRQFPGNKLEWMGYIQYSGSTNYNPSLKSRISVTRDTSKNQFFLRLSSVTAEDTATYYCTRSVNYYGNSFAVGYWGQGTSVTVSS VL: EIVLTQSPATLSLSPGERATLSCRASQGISDYLHWYQQKPGEAPRLLIKYTSQPATGIPARFSGSGSGTDFTLTISSLEPEDVGVYYCQSGHSFPLTFGAGTKLELKR"
3,13 nM,"mAb0112 (antibody, human IgG4 S228P, kappa, V domains shown, humanized 11F2 variant, first round) VH: DVQLQESGPGLVEPSQTLSLTCTVSGYSITSDSAWSWIRQFPGKKLEWMGYIQYSGSTNYNPSLKSRVTISRDTSKNQFSLKLSSVTAEDTAVYYCARSVNYYGNSFWVGYWGQGTSVTVSS VL: EIVLTQSPATLSLSPGERATLSCRASQGISDYLHWYQQKPGEAPRLLIKYTSQPATGIPARFSGSGSGTDFTLTISSLEPEDVGVYYCQNGHSFPLTFGAGTKLELKR"
4,1.7 nM,"mAb0118 (antibody, human IgG4 S228P, kappa, V domains shown, humanized 11F2 variant, first round) VH: DVQLQESGPGLVEPSQTLSLTCTVSGYSITSDSAWSWIRQFPGKKLEWIGYIQYSGSTNYNPSLKSRVTISRDTSKNQFSLKLSSVTAEDTAVYYCARSVNYYGNSFAVGYWGQGTSVTVSS VL: EIVLTQSPATLSLSPGERATLSCRASQGISDYLHWYQQKPGEAPRLLIKYTSQPATGIPARFSGSGSGTDFTLTISSLEPEDVGVYYCQNGHSFPLTFGAGTKLELKR"
5,1.8 nM,"mAb0113 (antibody, human IgG4 S228P, kappa, humanized 11F2 variant, first round) heavy: not shown light: EIVLTQSPATLSLSPGERATLSCRASQGISDYLHWYQQKPGEAPRLLIKYTSQPATGIPARFSGSGSGTDFTLTISSLEPEDVGVYYCQNGHSFPLTFGAGTKLELKRTVAAPSVFIFPPSDEQLKSGTASVVCLLNNFYPREAKVQWKVDNALQSGNSQESVTEQDSKDSTYSLSSTLTLSKADYEKHKVYACEVTHQGLSSPVTKSFNRGEC"
6,32 nM,"mAb0116 (antibody, human IgG4 S228P, kappa, V domains shown, humanized 11F2 variant, first round) VH: DVQLQESGPGLVEPSQTLSLTCTVSGYSITSDSAWSWIRQFPGKKLEWMGYIQYSGSTNYNPSLKSRVTISRDTSKNQFSLKLSSVTAEDTAVYYCARSVNYYGNSFAVDYWGQGTSVTVSS VL: EIVLTQSPATLSLSPGERATLSCRASQGISDYLHWYQQKPGEAPRLLIKYTSQPATGIPARFSGSGSGTDFTLTISSLEPEDVGVYYCQNGHSFPLTFGAGTKLELKR"
7,1.7 nM,"mAb0120 (antibody, human IgG4 S228P, kappa, V domains shown, humanized 11F2 variant, first round) VH: DVQLQESGPGLVEPSQTLSLTCTVSGYSISSDSAWSWIRQFPGKKLEWMGYIQYSGSTNYNPSLKSRVTISRDTSKNQFSLKLSSVTAEDTAVYYCARSVNYYGNSFAVGYWGQGTSVTVSS VL: EIVLTQSPATLSLSPGERATLSCRASQGISDYLHWYQQKPGEAPRLLIKYTSQPATGIPARFSGSGSGTDFTLTISSLEPEDVGVYYCQNGHSFPLTFGAGTKLELKR"
8,1 nM,"mAb0119 (antibody, human IgG4 S228P, kappa, humanized 11F2 variant, first round) heavy: not shown light: EIVLTQSPATLSLSPGERATLSCRASQGISDYLHWYQQKPGEAPRLLIKYTSQPATGIPARFSGSGSGTDFTLTISSLEPEDVGVYYCQNGHSFPLTFGAGTKLELKRTVAAPSVFIFPPSDEQLKSGTASVVCLLNNFYPREAKVQWKVDNALQSGNSQESVTEQDSKDSTYSLSSTLTLSKADYEKHKVYACEVTHQGLSSPVTKSFNRGEC"
9,1.5 nM,"mAb0115 (antibody, human IgG4 S228P, kappa, V domains shown, humanized 11F2 variant, first round) VH: DVQLQESGPGLVEPSQTLSLTCTVSGYSITSDSAWSWIRQPPGKKLEWMGYIQYSGSTNYNPSLKSRVTISRDTSKNQFSLKLSSVTAEDTAVYYCARSVNYYGNSFAVGYWGQGTSVTVSS VL: EIVLTQSPATLSLSPGERATLSCRASQGISDYLHWYQQKPGEAPRLLIKYTSQPATGIPARFSGSGSGTDFTLTISSLEPEDVGVYYCQNGHSFPLTFGAGTKLELKR"
10,1.5 nM,"mAb0114 (antibody, human IgG4 S228P, kappa, V domains shown, humanized 11F2 variant, first round) VH: DVQLQESGPGLVEPSQTLSLTCTVSGYSITSDSAWSWIRQFPGKKLEWMGYIQYSGSTNYNPSLKSRVTISRDTSKNQFSLKLSSVTAADTAVYYCARSVNYYGNSFAVGYWGQGTSVTVSS VL: EIVLTQSPATLSLSPGERATLSCRASQGISDYLHWYQQKPGEAPRLLIKYTSQPATGIPARFSGSGSGTDFTLTISSLEPEDVGVYYCQNGHSFPLTFGAGTKLELKR"
11,2 nM,"mAb0121 (antibody, human IgG4 S228P, kappa, V domains shown, humanized 11F2 variant, first round) VH: DVQLQESGPGLVEPSQTLSLTCTVSGYSITSDSAWSWIRQFPGKKLEWMGYIQYSGSTNYNPSLKSRVTISRDTSKNQFSLKLSSVTAEDTAVYYCARSVNYYGNSFAVGPWGQGTSVTVSS VL: EIVLTQSPATLSLSPGERATLSCRASQGISDYLHWYQQKPGEAPRLLIKYTSQPATGIPARFSGSGSGTDFTLTISSLEPEDVGVYYCQNGHSFPLTFGAGTKLELKR"
12,1.4 nM,"mAb0117 (antibody, human IgG4 S228P, kappa, V domains shown, humanized 11F2 variant, first round) VH: DVQLQESGPGLVEPSQTLSLTCTVSGYSITSDSAWSWIRQFPGKGLEWMGYIQYSGSTNYNPSLKSRVTISRDTSKNQFSLKLSSVTAEDTAVYYCARSVNYYGNSFAVGYWGQGTSVTVSS VL: EIVLTQSPATLSLSPGERATLSCRASQGISDYLHWYQQKPGEAPRLLIKYTSQPATGIPARFSGSGSGTDFTLTISSLEPEDVGVYYCQNGHSFPLTFGAGTKLELKR"

# Target: T1, recombinant human activated Factor VII …
# Experiment: cell-based or functional assay
AT inhibition (kinh %),TGT activity (% FVIIa),Binder
747%,128 % FVIIa,"mAb0013 (antibody, V domains shown) VH: QIQLVQSGPELKKPGETVKISCKASGYTFTDYSIQWVKQAPGKGLKWMGWINTETGKPSYADDLKGRSAFSLETSGSTAYLQISNLKNEDMATYFCVRDDYYGREDYWGQGTTLTVSS VL: DIVMTQSPSSLTVTAGEKVTVSCKSSQSLLNSGDQKNYLTWYQQKPGQPPKLLIYWASTRESGVPDRFTGSGSGTDFTLTISSVQAEDLAVYYCQNDFSYPYTFGGGTKLEIK"
23%,91 % FVIIa,"mAb7250 (antibody, V domains shown) VH: EVQLVESGGGLVKPGGSLRLSCAASGFTFTSYSMSWVRQAPGKGLEWVSSISSRSSYICYADSVKGRFTISRDNAKNSLYLQMNSLRAEDTAVYYCAREGDTGSIGGDYMDVWGKGTTVTVSS VL: not shown"
26%,88 % FVIIa,"mAb0701 (antibody, V domains shown) VH: QIQLQQSGPELVKPGTSVKMACKASDYTFTDYYLHWVKQRPGQGLEWIGWIYPGSGNTKFNEKFKGKATLTVDTSSSTAYMHLSSLTSDDTAVYFCTRVLGRGAMDYWGQGTSVTVSS VL: DIVLTQSPPSLAVSLGQRAIISCKASQSVSFAGTSLMYWYQQKPGQQPKVLMYRASNLEAGVPIRFSGSGSGTDFTLNIHPVEEDDVATYYCQQSREYPYTFGGGTKLEIK"

# Target: T2, recombinant human activated Factor VII …
# Experiment: cell-based or functional assay
AT inhibition (kinh %),TGT activity (%% FVIIa),Binder
105%,102%,"mAb0137(OA) (antibody, human IgG4 S228P, kappa) heavy: not shown light: EIVLTQSPATLSLSPGERATLSCRASQGISDYLHWYQQKPGEAPRLLIKYTSQPATGIPARFSGSGSGTDFTLTISSLEPEDVGVYYCQNGHSFPLTFGAGTKLELKRTVAAPSVFIFPPSDEQLKSGTASVVCLLNNFYPREAKVQWKVDNALQSGNSQESVTEQDSKDSTYSLSSTLTLSKADYEKHKVYACEVTHQGLSSPVTKSFNRGEC VESKYGPPCPPCPAPEFLGGPSVFLFPPKPKDTLMISRTPEVTCVVVDVSQEDPEVQFNWYVDGVEVHNAKTKPREEQFNSTYRVVSVLTVLHQDWLNGKEYKCKVSNKGLPSSIEKTISKAKGQPREPQVYTLPPSQEEMTKNQVSLTCLVKGFYPSDIAVEWESNGQPENNYKTTPPVLDSDGSFLLYSKLTVDKSRWQEGNVFSCSVMHEALHNHYTQKSLSLSLGK"
110%,100%,"mAb0139(OA) (antibody, human IgG4 S228P, kappa) heavy: not shown light: EIVLTQSPATLSLSPGERATLSCRASQGISDYLHWYQQKPGEAPRLLIKYTSQPATGIPARFSGSGSGTDFTLTISSLEPEDVGVYYCQNGHSFPLTFGAGTKLELKRTVAAPSVFIFPPSDEQLKSGTASVVCLLNNFYPREAKVQWKVDNALQSGNSQESVTEQDSKDSTYSLSSTLTLSKADYEKHKVYACEVTHQGLSSPVTKSFNRGEC VESKYGPPCPPCPAPEFLGGPSVFLFPPKPKDTLMISRTPEVTCVVVDVSQEDPEVQFNWYVDGVEVHNAKTKPREEQFNSTYRVVSVLTVLHQDWLNGKEYKCKVSNKGLPSSIEKTISKAKGQPREPQVYTLPPSQEEMTKNQVSLTCLVKGFYPSDIAVEWESNGQPENNYKTTPPVLDSDGSFLLYSKLTVDKSRWQEGNVFSCSVMHEALHNHYTQKSLSLSLGK"
